The values that follow come from publication PMC2171419 (The Journal of Cell Biology, 2005).

Numbering of substitutions follows the chain as printed.

One test has as its target T1, GST–14-3-3ζ Ser184A (UniProt P63104 1-245, Ser184A).
T1 sequence (looked up): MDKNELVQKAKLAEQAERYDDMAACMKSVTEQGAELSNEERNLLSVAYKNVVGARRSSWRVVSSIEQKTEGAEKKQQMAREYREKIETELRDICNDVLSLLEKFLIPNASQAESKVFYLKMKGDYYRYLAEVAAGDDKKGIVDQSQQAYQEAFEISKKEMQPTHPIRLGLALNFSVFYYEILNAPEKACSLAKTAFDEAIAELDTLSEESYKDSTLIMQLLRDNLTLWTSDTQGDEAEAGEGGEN
Briefly: pull-down.

Another test concerns the target T2, GST–14-3-3ζ (WT) (UniProt P63104 1-245).
T2 sequence (looked up): T1 sequence (looked up) with A184S
Briefly: pull-down.

B1: His-tagged Bad wild type, phosphorylated by CA-Akt (natural protein, mouse, UniProt Q61337 1-204, looked up)
chain: MGTPKQPSLAPAHALGLRKSDPGIRSLGSDAGGRRWRPAAQSMFQIPEFEPSEQEDASATDRGLGPSLTEDQPGPYLAPGLLGSNIHQQGRAATNSHHGGAGAMETRSRHSSYPAGTEEDEGMEEELSPFRGRSRSAPPNLWAAQRYGRELRRMSDEFEGSFKGLPRPKSAGTATQMRQSAGWTRIIQSWWDRNLGKGGSTPSQ
modifications: phosphoserine at 136 (by CA-Akt in vitro)
Take B1: the binding result in the test with GST–14-3-3ζ Ser184A is “binds”.

B2: His-tagged Bad Ser128A-Thr201A, phosphorylated by active Akt (natural protein, mouse, UniProt Q61337 1-204, looked up)
chain: B1 chain with S128A, T201A
modifications: phosphoserine at 136 (by CA-Akt in vitro)
On to B2, for which the binding result in the test with GST–14-3-3ζ (WT) is “binds”.

B3: His-tagged Bad Thr201A, phosphorylated by active Akt (natural protein, mouse, UniProt Q61337 1-204, looked up)
chain: B1 chain with T201A
modifications: phosphoserine at 136 (by CA-Akt in vitro)
Consider B3, for which the binding result in the test with GST–14-3-3ζ (WT) is reported as “binds”.

B4: His-tagged Bad Ser128A, phosphorylated by active Akt (natural protein, mouse, UniProt Q61337 1-204, looked up)
chain: B1 chain with S128A
modifications: phosphoserine at 136 (by CA-Akt in vitro)
Turning to B4, in the test with GST–14-3-3ζ (WT), the binding result is reported as “binds”.
